Where no end group is shown, it is not given here.
B1: Phage-506 (peptide, not shown: large carriers)
peptide: YCAGHLPEYMDKCL
notes: Clonal phage supernatant of the Peptide-87 optimisation library
B2: Phage-507 (peptide, not shown: large carriers)
peptide: YCDGHSAEHMAKCL
notes: as for B1
B3: Phage-508 (peptide, not shown: large carriers)
peptide: YCAGHLPQYMAKCL
notes: as for B1
B4: Phage-509 (peptide, not shown: large carriers)
peptide: YCEGHLPEYMAKCL
modifications: cysteine pairing not given here; also: displayed on phage as fusion to pIII, linker, pIII sequence and order not given here
notes: as for B1
B5: Phage-510 (peptide, not shown: large carriers)
peptide: YCEGHLPEYMFKCL
modifications: cysteine pairing not given here; also: displayed on phage as fusion to pIII, linker, pIII sequence and order not given here
notes: as for B1
B6: Phage-511 (peptide, not shown: large carriers)
peptide: YCDGHLPQYMAQCL
modifications: cysteine pairing not given here; also: displayed on phage as fusion to pIII, linker, pIII sequence and order not given here
notes: as for B1
B7: Phage-513 (peptide)
peptide: YCDGHAPEYMMKCL
notes: tested as crude clonal phage supernatant
B8: Phage-514 (peptide)
peptide: YCEGHLPEYMWKCL
notes: as for B7
B9: Phage-515 (peptide)
peptide: YCEGHAAEYMAKCL
notes: as for B7
B10: Phage-516 (peptide)
peptide: YCDGHLPEYLAKCL
notes: as for B7
B11: Phage-521 (peptide)
peptide: YCDGHLPEYMAKCL
notes: as for B7
B12: Phage-517 (peptide)
peptide: YCAGHMPEYMAKCL
notes: as for B7
B13: Phage-518 (peptide)
peptide: YCDGHLPEYMSKCM
notes: as for B7
B14: Phage-519 (peptide)
peptide: YCEGHTAEYMQKCL
notes: as for B7
B15: Phage-520 (peptide)
peptide: YCMGHAPEYMAKCL
notes: as for B7
B16: Phage-522 (peptide)
peptide: YCDGHSWEYIGKCL
notes: as for B7
B17: Phage-523 (peptide)
peptide: YCDGHLPEYQEKCL
notes: as for B7
B18: Phage-524 (peptide)
peptide: YCAGHLPQYMSKCL
notes: as for B7
B19: Phage-525 (peptide)
peptide: YCDGHLPIYMSQCL
notes: as for B7
B20: Phage-553 (peptide)
peptide: YCDGHAPQYMRKCL
notes: Clonal phage of the Peptide-87 library, tested as crude supernatant; not shown: pIII of the bacteriophage to which the peptide is fused
B21: Phage-554 (peptide)
peptide: YCDGHAKEYMWKCL
notes: as for B20
B22: Phage-555 (peptide)
peptide: YCEGHSSEYMLKCL
notes: as for B20
B23: Phage-556 (peptide)
peptide: YCEGHAAEYMEKCL
notes: as for B20
B24: Phage-557 (peptide)
peptide: YCEGHSAQYMSKCL
notes: as for B20
B25: Phage-558 (peptide)
peptide: YCDGHSREYIAKCL
notes: as for B20
B26: Phage-559 (peptide)
peptide: YCDGHLPQYMWKCL
notes: as for B20
B27: Phage-560 (peptide)
peptide: YCDGHVPEYMAKCL
notes: as for B20
B28: Phage-561 (peptide)
peptide: YCDGHLPMYMMKCL
notes: as for B20
B29: Phage-562 (peptide)
peptide: YCQGHAPEYMAKCL
notes: as for B20
B30: Phage-563 (peptide)
peptide: YCDGHSQEYMMKCL
notes: as for B20

Tests used:
[1] = biological target: Anti-CD28 Fab (SEQ ID NOs: 696, 697); assay: phage binding ELISA on captured anti-CD28 Fab pre-incubated with CD28 antigen as competitor
Target sequence in this assay (VH, as listed by the source, chain 1 of 2): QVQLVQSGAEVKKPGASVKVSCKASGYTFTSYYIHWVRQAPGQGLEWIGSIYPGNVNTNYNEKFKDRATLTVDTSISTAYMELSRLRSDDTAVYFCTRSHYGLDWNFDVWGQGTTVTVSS
Target sequence in this assay (VL, as listed by the source, chain 2 of 2): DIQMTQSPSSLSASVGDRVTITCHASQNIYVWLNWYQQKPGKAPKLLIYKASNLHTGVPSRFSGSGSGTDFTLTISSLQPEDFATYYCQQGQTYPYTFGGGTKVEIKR
Method: (§1) After panning, phage infected bacteria were plated out and colonies picked into 96 well blocks. Clonal phage was then amplified and separated from bacterial cells via centrifugation.
(§2) Clonal phage were harvested as crude supematants and screened via standard ELISAs. […] Prior to the addition of clonal phage, wells were incubated with blocking buffer and CD28 antigen or blocking buffer alone. Without washing or aspirating, clonal phage supematants were then added to the wells and incubated for a short time. Wells were then washed followed by detection of bound phage using a horse radish conjugated anti-M13 antibody. Clonal phage of interest were then sent for sequence analysis.

[2] = biological target: Anti-CD28 Fab (SEQ ID NOs: 696, 697); assay: phage binding ELISA; biotinylated anti-CD28 Fab captured on neutravidin plate, clonal phage supernatant, anti-M13 HRP detection
Target sequence in this assay (VH, as listed by the source, chain 1 of 2): as the sequence (VH, as listed by the source, chain 1 of 2) above
Target sequence in this assay (VL, as listed by the source, chain 2 of 2): as the sequence (VL, as listed by the source, chain 2 of 2) above
Method: as §1, §2

[3] = biological target: T1, Anti-CD28 Fab (SEQ ID NOs: 696, 697); assay: phage ELISA on captured anti-CD28 Fab; competitor CD28 antigen pre-incubated in the wells;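 also: clonal phage supernatants added to wells preloaded with CD28 antigen in blocking buffer, control wells buffer only, bound phage read via HRP-linked anti-M13 antibody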
T1 construct: Biotinylated and captured on neutravidin coated plates in the phage ELISA
T1 sequence (VH, as listed by the source, chain 1 of 2): as the sequence (VH, as listed by the source, chain 1 of 2) above
T1 sequence (VL, as listed by the source, chain 2 of 2): as the sequence (VL, as listed by the source, chain 2 of 2) above
Method: as §1, §2

[4] = biological target: T1, Anti-CD28 Fab (SEQ ID NOs: 696, 697); assay: phage ELISA; biotinylated anti-CD28 Fab on neutravidin plate, clonal phage supernatant, anti-M13 HRP
[5] = biological target: T2, Anti-CD28 Fab (SEQ ID NOs: 696, 697); assay: phage ELISA on anti-CD28 Fab plates; competitor CD28 antigen pre-incubated in the wells
T2 construct: Biotinylated and captured on neutravidin coated plates in the phage ELISA
T2 sequence (VH, as listed by the source, chain 1 of 2): as the sequence (VH, as listed by the source, chain 1 of 2) above
T2 sequence (VL, as listed by the source, chain 2 of 2): as the sequence (VL, as listed by the source, chain 2 of 2) above
Method: as §1, §2

[6] = biological target: T2, Anti-CD28 Fab (SEQ ID NOs: 696, 697); assay: phage ELISA; biotinylated anti-CD28 Fab on neutravidin plates, bound phage detected with anti-M13 HRP
Method: as §1, §2

[7] = biological target: T3, Anti-CD28 Fab (SEQ ID NOs: 696, 697); assay: phage binding ELISA, Fab on plate pre-incubated with CD28 antigen as competitor
T3 construct: Biotinylated and captured on neutravidin coated plates in the phage ELISA
T3 sequence (VH, as listed by the source, chain 1 of 2): as the sequence (VH, as listed by the source, chain 1 of 2) above
T3 sequence (VL, as listed by the source, chain 2 of 2): as the sequence (VL, as listed by the source, chain 2 of 2) above
Method: as §1, §2

[8] = biological target: T3, Anti-CD28 Fab (SEQ ID NOs: 696, 697); assay: phage binding ELISA, biotinylated Fab on neutravidin plate, anti-M13 HRP detection;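 also: crude clonal phage supernatants added to Fab-coated wells pretreated with CD28 antigen or with blocking buffer only, bound phage measured after washing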
Method: as §1, §2

Row | Binder | Phage binding ELISA, Anti-CD28 Fab signal in the presence of CD28 [3] | Phage binding ELISA, Anti-CD28 Fab signal [4] | Phage binding ELISA, Anti-CD28 Fab signal in the presence of CD28 [5] | Phage binding ELISA, Anti-CD28 Fab signal [6] | also measured
1 | B1 |  |  |  |  | Anti-CD28 Fab signal in the presence of CD28 (phage binding ELISA) [1]: 0.12; Anti-CD28 Fab signal (phage binding ELISA) [2]: 2.42
2 | B2 |  |  |  |  | Anti-CD28 Fab signal in the presence of CD28 (phage binding ELISA) [1]: 0.08; Anti-CD28 Fab signal (phage binding ELISA) [2]: 2.41
3 | B3 |  |  |  |  | Anti-CD28 Fab signal in the presence of CD28 (phage binding ELISA) [1]: 0.17; Anti-CD28 Fab signal (phage binding ELISA) [2]: 2.41
4 | B4 |  |  |  |  | Anti-CD28 Fab signal in the presence of CD28 (phage binding ELISA) [1]: 0.14; Anti-CD28 Fab signal (phage binding ELISA) [2]: 2.41
5 | B5 |  |  |  |  | Anti-CD28 Fab signal in the presence of CD28 (phage binding ELISA) [1]: 0.12; Anti-CD28 Fab signal (phage binding ELISA) [2]: 2.4
6 | B6 |  |  |  |  | Anti-CD28 Fab signal in the presence of CD28 (phage binding ELISA) [1]: 0.2; Anti-CD28 Fab signal (phage binding ELISA) [2]: 2.4
7 | B7 | 0.09 | 2.39 |  |  | 
8 | B8 | 0.08 | 2.39 |  |  | 
9 | B9 | 0.08 | 2.38 |  |  | 
10 | B10 | 0.11 | 2.38 |  |  | 
11 | B11 | 0.13 | 2.37 |  |  | 
12 | B12 | 0.11 | 2.38 |  |  | 
13 | B13 | 0.14 | 2.38 |  |  | 
14 | B14 | 0.08 | 2.38 |  |  | 
15 | B15 | 0.09 | 2.38 |  |  | 
16 | B16 | 0.07 | 2.37 |  |  | 
17 | B17 | 0.1 | 2.37 |  |  | 
18 | B18 | 0.11 | 2.37 |  |  | 
19 | B19 | 0.12 | 2.36 |  |  | 
20 | YCDGHEPQYMLKCL [Phage-540] |  |  | 0.12 | 2.32 | 
21 | YCEGHSPEYMSKCL [Phage-541] |  |  | 0.07 | 2.31 | 
22 | YCEGHTMEYMWKCL [Phage-542] |  |  | 0.07 | 2.31 | 

Row | Binder | Phage binding ELISA, Anti-CD28 Fab signal in the presence of CD28 [3] | Phage binding ELISA, Anti-CD28 Fab signal [4] | Phage binding ELISA, Anti-CD28 Fab signal in the presence of CD28 [5] | Phage binding ELISA, Anti-CD28 Fab signal [6] | also measured
23 | YCAGHLPEYMPHCI [Phage-543] |  |  | 0.09 | 2.31 | 
24 | YCDGHSPQYIEKCL [Phage-544] |  |  | 0.07 | 2.31 | 
25 | YCDGHSPEYILKCL [Phage-545] |  |  | 0.09 | 2.31 | 
26 | YCDGHLDEYMAKCL [Phage-546] |  |  | 0.08 | 2.31 | 
27 | YCDGHTLEYMWKCL [Phage-547] |  |  | 0.13 | 2.31 | 
28 | YCEGHLPLYMWKCL [Phage-548] |  |  | 0.07 | 2.3 | 
29 | YCDGHAPEYMAKCL [Phage-549] |  |  | 0.09 | 2.3 | 
30 | YCAGHSPEHMWKCL [Phage-550] |  |  | 0.06 | 2.3 | 
31 | YCEGHSEEYISKCL [Phage-551] |  |  | 0.08 | 2.3 | 
32 | YCDGHLPIYMAKCL [Phage-552] |  |  | 0.14 | 2.3 | 
33 | B20 |  |  |  |  | Anti-CD28 Fab signal in the presence of CD28 [7]: 0.07; Anti-CD28 Fab (SEQ ID NOs: 696, 697) signal [8]: 2.3
34 | B21 |  |  |  |  | Anti-CD28 Fab signal in the presence of CD28 [7]: 0.07; Anti-CD28 Fab (SEQ ID NOs: 696, 697) signal [8]: 2.3
35 | B22 |  |  |  |  | Anti-CD28 Fab signal in the presence of CD28 [7]: 0.07; Anti-CD28 Fab (SEQ ID NOs: 696, 697) signal [8]: 2.3
36 | B23 |  |  |  |  | Anti-CD28 Fab signal in the presence of CD28 [7]: 0.11; Anti-CD28 Fab (SEQ ID NOs: 696, 697) signal [8]: 2.3
37 | B24 |  |  |  |  | Anti-CD28 Fab signal in the presence of CD28 [7]: 0.07; Anti-CD28 Fab (SEQ ID NOs: 696, 697) signal [8]: 2.29
38 | B25 |  |  |  |  | Anti-CD28 Fab signal in the presence of CD28 [7]: 0.08; Anti-CD28 Fab (SEQ ID NOs: 696, 697) signal [8]: 2.29
39 | B26 |  |  |  |  | Anti-CD28 Fab signal in the presence of CD28 [7]: 0.12; Anti-CD28 Fab (SEQ ID NOs: 696, 697) signal [8]: 2.29
40 | B27 |  |  |  |  | Anti-CD28 Fab signal in the presence of CD28 [7]: 0.07; Anti-CD28 Fab (SEQ ID NOs: 696, 697) signal [8]: 2.29
41 | B28 |  |  |  |  | Anti-CD28 Fab signal in the presence of CD28 [7]: 0.14; Anti-CD28 Fab (SEQ ID NOs: 696, 697) signal [8]: 2.28
42 | B29 |  |  |  |  | Anti-CD28 Fab signal in the presence of CD28 [7]: 0.1; Anti-CD28 Fab (SEQ ID NOs: 696, 697) signal [8]: 2.28
43 | B30 |  |  |  |  | Anti-CD28 Fab signal in the presence of CD28 [7]: 0.06; Anti-CD28 Fab (SEQ ID NOs: 696, 697) signal [8]: 2.28
